We go through 40 sequences from the nanobody polyreactivity screen of Harvey et al. (2022).

This data set can be described thus: yeast display, Sf9 membrane polyspecificity reagent, FACS + sequencing; frameworks hold sequencing errors. In short, it runs like this: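 Genes from sorted yeast were amplified by colony PCR, read by MiSeq 2 × 250 sequencing and filtered on CDR length. These cells carried a synthetic nanobody library in Saccharomyces cerevisiae BJ5465 and were sorted by FACS into low and high (top ~1%) gates on anti-HA and streptavidin fluorescence. Polyreactivity is labelled according to the gate of origin.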
Take “QVHLVESGGGLVQAGGSRRLSCAASGRISTLNALGWYRQAPGKVWEFVAAISWRGGSTYYADSVKGRFTISRDNAKNTVYVQMNSLKPEDTAVYYCAARPYTLAFYRFGYWGQGTKVTVSS”: the “polyreactivity (PSR sort gate)” value is listed as “high polyreactivity”. As for “QVHLVESGGGLVQAGGSRRLSCAASGSIFRWYAMGWSRQAPGKERELVAAITRSGGRTYYADSVKGRFTISRDNAKNTVYLQMNSLKPEDTAVYYCAAVARTVPSYSYNYWGQGTQVTVSS”, the entry is “high polyreactivity”. For “QVHLVESGGGLVQAGVSLRLSCAASGRTVVNAMGWYRQAPGKERELVAAISSNGGRTYYADSVKGRFTISRDNAKHSVYLQMNSLKPEDTAVYYCAAYNTHRYDYWGQGTQVTVSS”, the “polyreactivity (PSR sort gate)” value is reported as “high polyreactivity”. The entry for “QVHLVESGGGLVQARGSLRLSCAASGSTIGYNTMVWYRQAPGKERELVAAITSGGRTYYADSVKGRFTISRDYAKNTVYLQMNSLKPEDSAVYYCAAYYWWGYPENEYWGQGTQVTVSS” is “high polyreactivity”. As for “QVHLVESGGGLVQGGGSLRLSCAASGGTIYYYAMGWYRQAPGKERELDAANRCSGGSTYYADSVKGRFTISRDIAKNTVSLQMNSLKPEDTAVYYCPSRGGNPKGYGYLAFNYWGQGTQVTVSS”, the entry is “high polyreactivity”; as for “QVHLVESGGGLVQPGGSLRLSCAASGFPFYINAMGWYRQAPGTERELVAAITIGSTTYYADSVKGRCTISRDNAKNTVYLQMNSLKPEDTAVYYCAAEVWRDYTSRLYDYWGQGTQVTVSS”, “low polyreactivity”. “QVHLVESGGGLVQSGGSLRLTCAASGRTFSQYAMGWYRQAPWKERDLVAAISWSGGSTYYADSVKGRFTFSRDNAKNTVYLEMNSLKPEDTAVYYCAAVGKGSARSSYQVLYDYWGQGTQVNVSS”: the “polyreactivity (PSR sort gate)” value is on record as “low polyreactivity”. Take “QVHLVESGGRLVQAGGSLRLSCAASGSTFGYYAMVWYRHAPGKDRELVAAITSGASTYYADSVKGRFTISRDNAKKTVYLQMNSLKPEDTAVYYCAARRWRKYYSGYNYWGQGTQVTVSA”: the “polyreactivity (PSR sort gate)” value is listed as “high polyreactivity”. As for “QVHLVESGGVLVQAGGSLRLSCAASGRIFYRYAMGWYRQAPGKERELVAAITHRGGSTYYADSVKGRFTISRDNAKNTVYLQMNSLKPEDTAVYYCAGRITEAVADYVGHKPYDYWGQGTQVTVSS”, the entry is “low polyreactivity”; as for “QVHLVESGRGFVQAGGSLRLSCAASAFTFHSYAMGWYRQAPGKERELVASISSSGSTNYADSVKGRFTISRDNEKNTVYLQMISLKPEDTAVSYCAAESRYPFIYEYWGQVTQVTVSS”, “low polyreactivity”; as for “QVHLVESGVGLVQAGGSLRLSCAASGITFGYYAMGWYRQAPGKERENVAAITRRGGSTYYADSVKGRFTISRDNAKNTVYLQMNSLKPVDTAVYYCAAVSYRYWFIEDNYWGQGTQVTVSS”, “high polyreactivity”.

In the case of “QVHLVESGVGLVQAGGSLRLSCAASGQIFPYYAMGWYRPAPGKETELVAAITSGGGTYYADSVKGRFTISRDNAKNTVYLQMNSLKPEDTAVYYCAVGSYGHPKHRRNLDYWGQGTQVTVSS”, the “polyreactivity (PSR sort gate)” value is “low polyreactivity”. As for “QVHLVESGVGLVQAGGSLRLSCASSGSTFYAYAMGWYRQAPGKERELVAAIDSGGSTYYADSVKGRFTISRDNAKNTVYLPMNILKPEDSAVYYCAVRHRYTRAYWGRDYWGQGTKVTVSS”, the entry is “low polyreactivity”; as for “QVHLVESGVGLVQAGGSLRLSCASSGSTYKPNALGWYSQAPGKESEFVAAITSGSTYYADTVKGRYTISRDNAKYNVYLQMNSLKPEDTAVYYCATSVRGKSPYRKSGSYYYWGQGTQVTVSS”, “high polyreactivity”; as for “QVHLVESGVGLVQARGSLRLSCASSGSTFGGNAMGWYRQAPGTERELVAAIDSGGGTNYADSVKGRFTIARDNAKNTVYLQMTSLKPEDTAVYYCNADWAVRSTQNSSSGHDYWGQATQVTVSS”, “low polyreactivity”.

As to “QVHLVESGVGLVQSGGSIRLTCAASGSTFHVYTKGSYRQAPGKEREFVASISCSGSSTYYADSVKGRFTISRDNAKNTVYLQMNSLKPEDTAVYYCNVDRWWLGWYKFNYWGQGTQVTVSS”, the “polyreactivity (PSR sort gate)” value is listed as “high polyreactivity”.

Regarding “QVHLVESVGGLVQAGGSHRLSCAASGRTLGFYAMGWYRQAPGKERELVAAINWSGGSTYYADSVKGRFTISRDNAKNTVYLQMNSLKPEDTAVYNCGVGTNYYDYWGQGTQVTVSS”, the “polyreactivity (PSR sort gate)” value is “high polyreactivity”. As for “QVHLVESVGGLVQAGGSLRISCAASGRIFSKYAMGWYRQAPGKDRELVGAITSSTKYADSVKGRFTISRDNAKNTVYLQMHSLKPEDTAVYSCNAEFVWHTYYGADFKMDYWGQGTQVTVSS”, the entry is “high polyreactivity”; as for “QVHLVESVGGLVQAGGSLRLSCAASGRTFPYNAMGWYIQAPGKERELVAVISKGGGRTYYADSVKGRFTISLDNAKNTVYLQMNSLKPEDTAVYYCDARYDGSSDYRLNYWGQGTQVTVSS”, “high polyreactivity”; as for “QVHLVESVGGLVQAGGSLRLSCAASGRTFRRYAMVWYRQAPGKERELVATITSADSTNYADSVKGRFTISRDNAKNTVYLQMNSLKPEDTAVYYCAKRWGRYAMYYWGQGTQVTVSS”, “high polyreactivity”. The entry for “QVHLVESVVCLVQAGGSLALSCASYGSIFRYYALGWYIQGTGKESELVAGITWGCRRTFYADSEKGRFTISRHNAKNTFYIQMNILKPEDTAVCYCAPRWFWKAYRFYYWGQGTQLTVSS” is “high polyreactivity”; for “QVHLVETGGGLVHAGGSLRLSCAASGFIFGVNAMGWYRQAPGKERELDAAITRNGGSTYYADSVKGRFTISRDYAKNTVYLQMNSLKPEDTAVYYCAKYVRRAPSSIDVDYWGQGTQVTVSS” it is “high polyreactivity”. The entry for “QVHLVETGGGLVQAGGSLRLSCAASGRTFYVNAMGWYRQAPWKERELVARITSGGSTYYADSVKGRFTISRDNAKNTVYLQMNSLKPEDTAVYYCAKKYIGYQVWIHSTRRYDYWGHGTQVTVSS” is “low polyreactivity”; for “QVHLVETGGGLVQAGGSLRLSCAASGSIFSSYHMVWYRQAPGKERELVASISSGGSTNYADSVKGRFTISRDNAKNTVYLHMNSLNPEVTAVYYCNVDLYNWRGDSTGYDYWGQGTQVTVSS” it is “low polyreactivity”. Consider “QVHLVETGGGLVQAGGSPRLSCAASGRTLLDYGLGWYRQAPGKERELVAGITSSGGRSYADSVKGRLTISRDNAKNTVYLEMNSLKPEDSAGYYCAAYLNLSELLRYHYWGKGTQVTVSS”, for which the “polyreactivity (PSR sort gate)” value is “low polyreactivity”.

With “QVHLVETGRGLLQSGGSLRISCAASGRTFIYNAMGWYRQAPGKERELVARISSGGGNTYYAYSVKWRFTISRDNANNTVYLLMNSLKPEDTAVYYCAIGWRPSFSYYWGQGTQVTVSS”, the “polyreactivity (PSR sort gate)” value is recorded as “high polyreactivity”. The entry for “QVHLVQSGGGIVQEGGSLRISCAASGFTLIHYAMGWYRQAPGKERELVAGITTSGGSTYYADSVKGRFTISRDNAKNTVYLQMKSLKPEDTGVYYCADSSNTRGDYWGQGTQVTVSS” is “high polyreactivity”; for “QVKHVESGGGLVKAGGSLRLSCPAAGRIIDKYAMGWYRQSPGKERELVATITSSGGSTYYADSVKGRFTISRDTAMNNVYLQMNSLKPEDTAVYYCDALDRTGYSRGETRSLYYFWGQGTQVTVSS” it is “low polyreactivity”; for “QVKHVESVGRLVQAGGSLRLSSASSGRIFRSYAMGCYRQAPGKESEYVAAISRSGGRTYYADSVKGRFTISRDNAKNTVYLQMNSLKPEDSAVYYCAVVDYHVHSSDYNYWGQGTQVTVSS” it is “high polyreactivity”. The entry for “QVKLEESGGGLLQAGGSLRLSCAASGRIIGDYAMGSYRQAPGKERELVAANDRGGSTHYADSVKGRYTISRDNAKNTFYFQMNSLKPEDTAVYYCNLDVWANIKSRCIFAGWYDYWGQGTQVTVSS” is “low polyreactivity”; for “QVKLLDSGGGLVQAGGSLRLTSAASGRIFYTNAMGWYRQEPGKERELVAVISWGGDTTYYADSVKGRFTISRDNAKNTVYLQMTSLKPEDTAVYYCNADWGATYEIYDSWGQGTQVTVST” it is “low polyreactivity”. As for “QVKLLESGGGLVQAGGSLLLSCAASGSIFDGYSMVWYRQAPGKEREFVASIRFSTGRTYYADSVKGRFTISRDNAKNTVYLQMNSLKPEDTAVYYCNAPQGFVWRYSSWGPYDYWGQGTQVTVSS”, the entry is “high polyreactivity”; as for “QVKLVESAGGLVKAGGSLRLSSAASGITFNLYAMGCYSQSPGKERELVAAISWSGGSTYYADSVKGRFTISREHAKNTVYLQMNSLNQEDTAVYYCAAAWDYSAPYTYIYDYWGLGTQVTVSS”, “low polyreactivity”; as for “QVKLVESAVGLVQAGGSLRLSCAASGRTFCSYAMGWYRQAPGKERELVAAISRGGSRTYYADSVKGRFTISRDNAKNTVYLQMNSLKPEDTAVYYCAADPTASGHFLGQVDYWGQGTQVTVSS”, “high polyreactivity”. “QVKLVESAVRLVQAGGSLRLSCAASASTLYRYSMGLYRQAPGKERELVAAISSSGGSSYYADSVKGRFTISRDNAKNTVYLQMNRLKQEDTAVYYCSAAALRTIGAGYRYGNWGQGTQVTVSS”: the “polyreactivity (PSR sort gate)” value is “high polyreactivity”. The entry for “QVKLVESGAGLVQAGASLRLSCAASGLIFHQYAMGWYRQAPGKERELVAAITRSGTRTYYADSVKGRFTISRDNEKNTVYLQMNSLKPEDTAVYYCAAADTQGVSMDYWGQGTQVTVSS” is “high polyreactivity”. For “QVKLVESGGALVQAGGSLRLSCAASGRNFSSYAMGRYRQAPGKERYLVARISSSGGGTSYADSVKGRFTISRDNAKNTVYLQMNSLKPEDTAVYYCAAEDQYYRYFFSYEYWGQGTQVTVSS”, the “polyreactivity (PSR sort gate)” value is “high polyreactivity”. For the sequence “QVKLVESGGCLVQAGCSLRLSCAASGRTFHGYAMGWYRQAPGTERELVAAITVSGDSTYYADSVKGRFTISRDNAKNTVYLQMNSLKPEDTAVYYCNASFREPSTPVYLVAFDYWGQGTQVTVSS”, the “polyreactivity (PSR sort gate)” value is reported as “low polyreactivity”. Regarding “QVKLVESGGGLVQAGGSIRLSCAASGSTFATYAMGCYRQAPGKERELVAAITSGGSTDYADSVKGRFTISRDNAKNTVYLQMNSQKPEDTAVYYCNATWVLLSYYYLFWCYDYWGQGTQVTVSS”, the “polyreactivity (PSR sort gate)” value is “low polyreactivity”. As for “QVKLVESGGGLVQAGGSISLTCAASGSIFYKYVMGWYRQAPGKERELVAAISRGGGSTYYADSVKGRFTISRDNAKNTVYLQMNSLKPEDTAVYYCYAVGRPRYGHGFDHWGQGTQVTVSS”, the entry is “high polyreactivity”.
